# “And” between values parts separate entries of the source, which are not always exact repeats. Equal values may be shown once.
# Test system: CC1(C)C(C=C(Cl)Cl)C1C(=O)OCc1cccc(Oc2ccccc2)c1
# Assay: purified protein
# Settings: analogous to ρ-nitrophenyl ester assay (50 mM sodium phosphate pH 7.0, 30°C)
substance,measurement,value
Pye3 (pyrethroid-hydrolyzing esterase) (uncultured prokaryote),Km,0.10 µM and 0.18 µM
